The results in this text go back to US20080260641A1 (Genmab, published 2008).

In experiment [1] the target is T1, human CD20 (human, UniProt P11836 1-297).
T1 construct: whole, on cells; also called WT CD20; wild-type (WT) CD20
T1 sequence (looked up): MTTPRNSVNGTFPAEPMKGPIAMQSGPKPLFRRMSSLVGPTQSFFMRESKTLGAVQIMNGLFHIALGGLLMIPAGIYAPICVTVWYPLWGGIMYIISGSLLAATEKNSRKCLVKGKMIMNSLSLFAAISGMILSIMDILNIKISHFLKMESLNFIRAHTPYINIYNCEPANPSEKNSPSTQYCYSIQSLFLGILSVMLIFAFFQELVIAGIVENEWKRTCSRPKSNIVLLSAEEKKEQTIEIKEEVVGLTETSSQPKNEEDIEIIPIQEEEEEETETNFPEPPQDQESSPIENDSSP
Put plainly: flow cytometry blocking assay on CD20-NS/0 cells: pre-incubation with the control, then competitor rituximab-FITC 10 µg/ml. (In general: In flow cytometry, cells or beads pass a laser one at a time.)

For experiment [2], the target named is T1, human CD20. Put plainly: flow cytometry on CD20-positive NS/0 cells, control antibody.
Experiment [3] deals with T1, human CD20. Put plainly: flow cytometry, FITC-conjugated antibodies on Daudi and Raji cells.

Molecule human IgG1 control antibody yielded a Blocking of rituximab (signal of rituximab-FITC left after pre-incubation) with human CD20 [1] of 179. For the same molecule, the Binding CD20-NS/0 (mean fluorescence) (mean fluorescence) with human CD20 [2] was determined as 14. Molecule human IgM control antibody had a Blocking of rituximab (signal of rituximab-FITC left after pre-incubation) with human CD20 [1] of 182. The Binding CD20-NS/0 (mean fluorescence) (mean fluorescence) with human CD20 [2] turned out to be 9.

B1: 11B8 (antibody, V domains shown)
VH: EVQLVQSGGGLVHPGGSLRLSCTGSGFTFSYHAMHWVRQAPGKGLEWVSIIGTGGVTYYADSVKGRFTISRDNVKNSLYLQMNSLRAEDMAVYYCARDYYGAGSFYDGLYGMDVWGQGTTVTVSS
VL: EIVLTQSPATLSLSPGERATLSCRASQSVSSYLAWYQQKPGQAPRLLIYDASNRATGIPARFSGSGSGTDFTLTISSLEPEDFAVYYCQQRSDWPLTFGGGTKVEIK
notes: also called human recombinant monoclonal IgG1,κ anti-CD20 antibody 11B8
Regarding B1, the binding result with human CD20 [3] was “binds”.
